Source: patent publication US20200231630A1

Legend:
[1] = target: H4N6 A/America black duck/New Brunswick/00464/2010 hemagglutinin, monomeric HA1 head (Influenza A virus H4N6 A/America black duck/New Brunswick/00464/2010); experiment: BLI, Fab on Ni-NTA sensor, monomeric HA head in solution
[2] = target: rsH14WIv2 monomeric HA1 head; experiment: as above
[3] = target: rsH14WIv1 monomeric HA1 head; experiment: as above
[4] = target: rsH4NBv3 monomeric HA1 head; experiment: as above
[5] = target: H1 A/Solomon Islands/3/2006 hemagglutinin, monomeric HA1 head (Influenza A virus H1N1 A/Solomon Islands/3/2006) (UniProt B4URD6); experiment: as above
[6] = target: rsH4NBv1 monomeric HA1 head; experiment: as above
[7] = target: H14N6 A/mallard/Wisconsin/10OS3941/2010 hemagglutinin, monomeric HA1 head (Influenza A virus H14N6 A/mallard/Wisconsin/10OS3941/2010); experiment: as above
[8] = target: rsH14WIv1 monomeric HA1 head; experiment: BLI, Fab and monomeric HA head
[9] = target: rsH14WIv2 monomeric HA1 head; experiment: BLI, Fab and monomeric HA head

| Substance | Kd [1] | Kd [2] | Kd [3] | Kd [4] | Kd [5] | Kd [6] | Kd [7] | fold KD greater than wildtype H1 SI-06 [8] | fold tighter binding than wildtype H1 SI-06 [9] |
| --- | --- | --- | --- | --- | --- | --- | --- | --- | --- |
| CH67 Fab | > 100000 nM | 310 nM | 9500 nM | 1600 nM | 570 nM | > 100000 nM | > 100000 nM | 17 fold |  |
| C05 Fab | > 100000 nM | 65 nM | 1400 nM | 340 nM | 1100 nM | > 100000 nM | > 100000 nM | 1.3 fold | > 10 fold |
